Positions count from the first letter of the chain named. Blank lines part the entries; values can stand above or below the binder they belong to.
Key:
[1] = target: T1, cyno CD46 expressed on 293 cells (cynomolgus); test: FACS, 293 cells expressing cyno CD46, pH 6.0
T1 construct: whole, on cells; The construct on the cells is not described; also called HEK 293 cells expressing cyno CD46
Procedure: (§1) A similar FACS analysis was also carried out using 293 cells expressing cyno CD46. […] The EC50 values for binding to the 293 cells expressing cyno CD46 by the conditionally active anti-CD46 antibodies are summarized in Table 6.

[2] = target: T2, huCD46-His (human, UniProt P15529 35-343); test: SPR, huCD46-His immobilised, antibody as analyte, pH 7.4
T2 construct: extracellular domain; Immobilised by amine coupling on the SPR chip; It may be the same protein as the ELISA antigen; also called Human CD46-His; human CD46; not shown: His tag
T2 sequence (looked up): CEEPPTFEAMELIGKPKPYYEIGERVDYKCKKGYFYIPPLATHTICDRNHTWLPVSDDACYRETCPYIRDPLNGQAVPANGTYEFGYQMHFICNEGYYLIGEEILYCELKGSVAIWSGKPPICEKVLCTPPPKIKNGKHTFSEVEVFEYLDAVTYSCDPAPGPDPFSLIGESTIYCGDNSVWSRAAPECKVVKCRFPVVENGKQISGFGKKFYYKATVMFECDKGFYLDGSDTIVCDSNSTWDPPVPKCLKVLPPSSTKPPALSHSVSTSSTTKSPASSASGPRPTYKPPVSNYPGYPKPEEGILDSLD
Procedure: (§2) Binding kinetics of anti-CD46 antibodies were measured by surface plasmon resonance on a SPR2/4 instrument (Sierra Sensors, Hamburg, Germany) and flat amine sensor chips. The SPR sensor contained four flow cells (FC1-FC4), each of which can be addressed individually or in groups. huCD46-His was immobilized in FC2, and cynoCD46-His was immobilized in FC4. No protein was immobilized in FC1 and FC3 which were used as control surfaces for FC2 and FC4, respectively.
(§3) All injections were done at a flow rate of 25 μL/min and 25° C. The sensor surface was activated with 1-ethyl-3-(3-dimethylaminopropyl)-carbodiimide (EDC) and N-hydroxysuccinimide (NHS) (200 mM/50 mM) for 480 seconds. Human CD46-His (2 μg/mL in 10 mM NaAc, pH5.0) was injected for 480s and the surface was inactivated by injecting 1M ethanolamine-HCl for 480s. cynoCD46-His was immobilized using the same conditions as described for huCD46-His, except that it was diluted into 10 mM NaAc buffer pH4.5. The control surface was activated and deactivated using the same conditions, but without injecting protein. PBST buffer (PBS pH7.4 with 0.05% TWEEN20™) was used as running buffer for the surface preparation. The running solution was switched to PBST with 30 mM sodium bicarbonate with the pH adjusted as indicated in the figures before the analyte injections. The instrument was equilibrated with the running solution for one hour before the first analyte injection.
(§4) The off-rate was measured for 360 s. The chip surface was regenerated after each cycle of interaction by injecting 6 μL of 10 mM glycine (pH 2.0). Flow cells 1 and 3 without immobilized protein were used as control surfaces for reference subtraction.

[3] = target: T1, cyno CD46 expressed on 293 cells; test: FACS, 293 cells expressing cyno CD46; EC50 at pH 7.4 over EC50 at pH 6.0
Procedure: as §1

[4] = target: T1, cyno CD46 expressed on 293 cells; test: FACS, 293 cells expressing cyno CD46, pH 7.4
Procedure: as §1

[5] = target: T3, recombinant cyno CD46 antigen (cynomolgus, UniProt A0A2K5WCL8 35-328); test: ELISA, coated cyno CD46; EC50 at pH 7.4 over EC50 at pH 6.0
T3 construct: extracellular domain; Plate-coated antigen of the ELISA; also called cynomolgus CD46 extracellular domain
T3 sequence: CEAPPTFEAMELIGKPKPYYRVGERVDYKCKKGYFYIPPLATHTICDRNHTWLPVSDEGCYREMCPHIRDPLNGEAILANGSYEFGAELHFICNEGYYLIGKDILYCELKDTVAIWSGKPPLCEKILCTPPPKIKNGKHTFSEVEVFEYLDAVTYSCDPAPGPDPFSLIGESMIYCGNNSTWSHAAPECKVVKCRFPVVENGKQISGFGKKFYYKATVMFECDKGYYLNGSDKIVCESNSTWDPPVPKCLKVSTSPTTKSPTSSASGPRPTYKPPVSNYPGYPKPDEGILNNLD
Procedure: The binding activities of conditionally active anti-CD46 antibodies to cyno CD46 were measured by ELISA and are shown in FIGS. 3-4. The EC50 values for binding to the cyno CD46 at pH 6.0 and pH 7.4 for the conditionally active anti-CD46 antibodies are summarized in Table 2.
[…] Cover with sealing film and place the plate onto a plate shaker set to 50 rpm for 60 minutes at room temperature. [0351] 6) Decant plates and tap out residual liquid on a stack of paper towels. [0352] 7) Serially dilute test articles in 3-fold dilutions starting at 3000 ng/mL in pH 6.0 or pH 7.4 ELISA incubation buffer. [0353] 8) Add 100 μL/well of diluted test articles to the plates [0354] 9) Cover with sealing film and place the plates onto a plate shaker set to 50 rpm for 60 minutes at room temperature. […] 10) Decant plates and tap out residual liquid on a stack of paper towels. [0356] 11) Wash wells three times by dispensing 200 μL of pH 6.0 or pH 7.4 ELISA wash buffer to the wells and completely aspirate the contents. [0357] 12) Dilute the HRP secondary antibody at 1:2500 in pH 6.0 or pH 7.4 ELISA incubation buffer. [0358] 13) Add 100 μL HRP secondary antibody diluted in pH 6.0 or pH 7.4 ELISA incubation buffer to each well [0359] 14) Cover with sealing film and place the plates onto a plate shaker set to 50 rpm for 60 minutes at room temperature. [0360] 15) Decant plates and tap out residual liquid on a stack of paper towels. [0361] 16) Wash wells three times by dispensing 200 μL of pH 6.0 or pH 7.4 ELISA wash buffer to the wells and completely aspirate the contents. [0362] 17) Dispense 50 μL per well of the TMB substrate solution into all wells of the plates. Incubate at room temperature for about 2 minutes 15 seconds or 2 minutes. […] 18) Add 50 μL per well of 1N HCl into all wells of the plates. Read plates at 450 nm using PerkinElmer, EnSpire 2300 Multilabel Reader.

[6] = target: T4, cynoCD46-His (cynomolgus, UniProt A0A2K5WCL8 35-328); test: SPR, cynoCD46-His immobilised, antibody as analyte, pH 7.4
T4 construct: extracellular domain; Immobilised by amine coupling on the SPR chip; not shown: His tag
T4 sequence: T3 sequence
Procedure: as §2, §3, §4

[7] = target: T4, cynoCD46-His; test: SPR, cynoCD46-His immobilised, antibody as analyte, pH 6.5
Procedure: as §2, §3, §4

[8] = target: T4, cynoCD46-His; test: SPR, cynoCD46-His immobilised, antibody as analyte, pH 6.0
Procedure: as §2, §3, §4

[9] = target: T2, huCD46-His; test: SPR, huCD46-His immobilised, antibody as analyte, pH 6.5
Procedure: as §2, §3, §4

[10] = target: T2, huCD46-His; test: SPR, huCD46-His immobilised, antibody as analyte, pH 6.0
Procedure: as §2, §3, §4

B2: BAP133-2-03-03-SL (antibody, V domains shown)
VH: EVQLVESGGGLVQPGGSLRLSCAASGGSVSSYDISWIRQSPSRGLEWLGVIWTDGGTNYNSAFMSRFTISRDDSKNTAYLQMNSLKTEDTAVYYCERVYDGYPWFAYWGQGTLVTVSS
VL: AIQLTQSPSSLSASVGDRVTITCRASQGISNYLNWYLQKPGQSPQLLIYYTSSLHSGVPDRFSGSGSGTDFTLKISRVEAEDVGVYYCQQYIKLPWTFGQGTKVEIK
notes: the killing assays used the ADC form; also called BAP133-02-03-03-SL; CPE hit BAP133-2-03-03-SL
EC50 [1]: 0.104 µg/mL
Kd [2]: 0.89 nM
koff [2]: 0.000778 s⁻¹
kon [2]: 874000 M⁻¹ s⁻¹
Ratio (pH 7.4/6.0) [3]: 11
EC50 [4]: 1.15 µg/mL
ratio (ph 7.4/pH 6.0) [5]: 11
Kd [6]: 5.47 nM
koff [6]: 0.00242 s⁻¹
kon [6]: 442000 M⁻¹ s⁻¹
Kd [7]: 2.33 nM
koff [7]: 0.00198 s⁻¹
kon [7]: 849000 M⁻¹ s⁻¹
Kd [8]: 2.55 nM
koff [8]: 0.00255 s⁻¹
kon [8]: 1e+06 M⁻¹ s⁻¹
Kd [9]: 1.29 nM
koff [9]: 0.000736 s⁻¹
kon [9]: 571000 M⁻¹ s⁻¹
Kd [10]: 2.36 nM
koff [10]: 0.000915 s⁻¹
kon [10]: 388000 M⁻¹ s⁻¹

B4: BA-133-04-03 (antibody, V domains shown)
VH: B2 VH
VL: B2 VL with H55F
notes: also called CPE hit BA133-04-03
EC50 [1]: 0.0411 µg/mL
Kd [2]: 4.8 nM
koff [2]: 0.00249 s⁻¹
kon [2]: 519000 M⁻¹ s⁻¹
Ratio (pH 7.4/6.0) [3]: 8
EC50 [4]: 0.33 µg/mL
ratio (ph 7.4/pH 6.0) [5]: 7.14
Kd [6]: 1.26 nM
koff [6]: 0.00153 s⁻¹
kon [6]: 1.21e+06 M⁻¹ s⁻¹
Kd [7]: 0.624 nM
koff [7]: 0.00142 s⁻¹
kon [7]: 2.28e+06 M⁻¹ s⁻¹
Kd [8]: 0.514 nM
koff [8]: 0.00143 s⁻¹
kon [8]: 2.79e+06 M⁻¹ s⁻¹
Kd [9]: 2.07 nM
koff [9]: 0.00195 s⁻¹
kon [9]: 941000 M⁻¹ s⁻¹
Kd [10]: 1.52 nM
koff [10]: 0.00179 s⁻¹
kon [10]: 1.18e+06 M⁻¹ s⁻¹

B5: BA-133-04-02 (antibody, V domains shown)
VH: B2 VH
VL: B2 VL with S30A
notes: also called CPE hit BA133-04-02
EC50 [1]: 0.132 µg/mL
Kd [2]: 4.17 nM
koff [2]: 0.00174 s⁻¹
kon [2]: 417000 M⁻¹ s⁻¹
Ratio (pH 7.4/6.0) [3]: 10.4
EC50 [4]: 1.37 µg/mL
ratio (ph 7.4/pH 6.0) [5]: 9
Kd [6]: 1.06 nM
koff [6]: 0.000904 s⁻¹
kon [6]: 852000 M⁻¹ s⁻¹
Kd [7]: 0.683 nM
koff [7]: 0.000943 s⁻¹
kon [7]: 1.38e+06 M⁻¹ s⁻¹
Kd [8]: 0.519 nM
koff [8]: 0.000835 s⁻¹
kon [8]: 1.61e+06 M⁻¹ s⁻¹
Kd [9]: 2.31 nM
koff [9]: 0.00127 s⁻¹
kon [9]: 547000 M⁻¹ s⁻¹
Kd [10]: 2.33 nM
koff [10]: 0.00143 s⁻¹
kon [10]: 611000 M⁻¹ s⁻¹

B6: BA-133-04-04 (antibody, V domains shown)
VH: B2 VH
VL: B2 VL with S56E
notes: the killing assays used the ADC form; also called CPE hit BA133-04-04
EC50 [1]: 0.0947 µg/mL
Kd [2]: 4.93 nM
koff [2]: 0.00241 s⁻¹
kon [2]: 490000 M⁻¹ s⁻¹
Ratio (pH 7.4/6.0) [3]: 10
EC50 [4]: 0.944 µg/mL
ratio (ph 7.4/pH 6.0) [5]: 13
Kd [6]: 2.28 nM
koff [6]: 0.00154 s⁻¹
kon [6]: 673000 M⁻¹ s⁻¹
Kd [7]: 1.09 nM
koff [7]: 0.00145 s⁻¹
kon [7]: 1.33e+06 M⁻¹ s⁻¹
Kd [8]: 1.02 nM
koff [8]: 0.00146 s⁻¹
kon [8]: 1.42e+06 M⁻¹ s⁻¹
Kd [9]: 1.91 nM
koff [9]: 0.00176 s⁻¹
kon [9]: 922000 M⁻¹ s⁻¹
Kd [10]: 2.51 nM
koff [10]: 0.00207 s⁻¹
kon [10]: 824000 M⁻¹ s⁻¹

Further binders by falling Kd [2], results first:

EC50 [1]: 0.114 µg/mL
Kd [2]: 3.99 nM
koff [2]: 0.00154 s⁻¹
kon [2]: 385000 M⁻¹ s⁻¹
Ratio (pH 7.4/6.0) [3]: 8.4
EC50 [4]: 0.958 µg/mL
ratio (ph 7.4/pH 6.0) [5]: 9.2
Kd [6]: 1.29 nM
koff [6]: 0.000893 s⁻¹
kon [6]: 690000 M⁻¹ s⁻¹
Kd [7]: 0.558 nM
koff [7]: 0.000662 s⁻¹
kon [7]: 1.19e+06 M⁻¹ s⁻¹
Kd [8]: 0.465 nM
koff [8]: 0.000757 s⁻¹
kon [8]: 1.63e+06 M⁻¹ s⁻¹
Kd [9]: 1.77 nM
koff [9]: 0.00123 s⁻¹
kon [9]: 696000 M⁻¹ s⁻¹
Kd [10]: 0.991 nM
koff [10]: 0.00113 s⁻¹
kon [10]: 1.14e+06 M⁻¹ s⁻¹
B3: BA-133-04-01 (antibody, V domains shown)
VH: B2 VH
VL: B2 VL with G28W
notes: also called CPE hit BA133-04-01

EC50 [1]: 0.0336 µg/mL
Kd [2]: 2.13 nM
koff [2]: 0.00119 s⁻¹
kon [2]: 555000 M⁻¹ s⁻¹
Ratio (pH 7.4/6.0) [3]: 1.5
EC50 [4]: 0.0493 µg/mL
ratio (ph 7.4/pH 6.0) [5]: 1.33
Kd [6]: 0.905 nM
koff [6]: 0.0011 s⁻¹
kon [6]: 1.21e+06 M⁻¹ s⁻¹
Kd [7]: 0.778 nM
koff [7]: 0.00117 s⁻¹
kon [7]: 1.51e+06 M⁻¹ s⁻¹
Kd [8]: 0.795 nM
koff [8]: 0.00115 s⁻¹
kon [8]: 1.45e+06 M⁻¹ s⁻¹
Kd [9]: 2.15 nM
koff [9]: 0.00133 s⁻¹
kon [9]: 621000 M⁻¹ s⁻¹
Kd [10]: 2.32 nM
koff [10]: 0.00158 s⁻¹
kon [10]: 682000 M⁻¹ s⁻¹
B1: Benchmark (BM) BA-133-00-01 (antibody, V domains shown)
VH: QVQLQESGPGLVKPSETLSLTCTVSGGSVSSYDISWIRQPPGKGLEWIGVIWTDGGTNYNSAFMSRVTISVDTSKNQFSLKLSSVTAADTAVYYCARVYDGYPWFAYWGQGTLVTVSS
VL: DIQMTQSPSSLSASVGDRVTITCRASQGISNYLNWYQQKPGKAPKLLIYYTSSLHSGVPSRFSGSGSGTDFTLTISSLQPEDFATYYCQQYIKLPWTFGGGTKLEIKR
notes: the killing assays used the ADC form; Conjugation site and payload are not described; also called BM (bench mark)

Source: patent US20230242662A1 (BIOATLA, published 2023)
